Measured values published in paper PMC2386557, “Varicellovirus UL49.5 Proteins Differentially Affect the Function of the Transporter Associated with Antigen Processing, TAP” (PLoS Pathogens, 2008).
Where no end group is shown, it is not given here. The star is where a group is joined. 125I = [125I]*

Tests used:
Details in all cases: one partner purified
[1] = biological target: T1, TAP complex of MJS TAP1-GFP cells (TAP1-GFP with TAP2) ( | human (endogenous in MJS), UniProt Q03518;Q03519); assay: radioligand binding
T1 construct: also called GFP-tagged TAP
T1 sequence 1: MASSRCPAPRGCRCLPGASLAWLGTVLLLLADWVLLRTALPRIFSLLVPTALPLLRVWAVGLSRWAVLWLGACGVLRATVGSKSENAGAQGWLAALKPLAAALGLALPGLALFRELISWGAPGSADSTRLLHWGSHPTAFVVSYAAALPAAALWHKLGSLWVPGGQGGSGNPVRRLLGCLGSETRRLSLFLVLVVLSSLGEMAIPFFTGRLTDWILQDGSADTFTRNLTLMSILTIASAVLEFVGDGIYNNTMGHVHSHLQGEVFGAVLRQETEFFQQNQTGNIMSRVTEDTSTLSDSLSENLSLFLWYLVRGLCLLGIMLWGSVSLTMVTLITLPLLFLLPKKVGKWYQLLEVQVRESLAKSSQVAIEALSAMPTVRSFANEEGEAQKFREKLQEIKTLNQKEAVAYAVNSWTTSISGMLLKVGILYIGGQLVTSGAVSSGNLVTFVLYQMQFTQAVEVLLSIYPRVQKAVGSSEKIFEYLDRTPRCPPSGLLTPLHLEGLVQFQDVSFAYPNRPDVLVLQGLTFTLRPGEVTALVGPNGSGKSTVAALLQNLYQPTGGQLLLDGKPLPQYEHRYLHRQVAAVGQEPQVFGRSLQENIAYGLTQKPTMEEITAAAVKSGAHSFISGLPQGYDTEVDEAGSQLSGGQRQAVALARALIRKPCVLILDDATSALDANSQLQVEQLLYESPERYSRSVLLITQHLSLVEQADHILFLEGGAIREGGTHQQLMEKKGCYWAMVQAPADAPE
T1 sequence 2: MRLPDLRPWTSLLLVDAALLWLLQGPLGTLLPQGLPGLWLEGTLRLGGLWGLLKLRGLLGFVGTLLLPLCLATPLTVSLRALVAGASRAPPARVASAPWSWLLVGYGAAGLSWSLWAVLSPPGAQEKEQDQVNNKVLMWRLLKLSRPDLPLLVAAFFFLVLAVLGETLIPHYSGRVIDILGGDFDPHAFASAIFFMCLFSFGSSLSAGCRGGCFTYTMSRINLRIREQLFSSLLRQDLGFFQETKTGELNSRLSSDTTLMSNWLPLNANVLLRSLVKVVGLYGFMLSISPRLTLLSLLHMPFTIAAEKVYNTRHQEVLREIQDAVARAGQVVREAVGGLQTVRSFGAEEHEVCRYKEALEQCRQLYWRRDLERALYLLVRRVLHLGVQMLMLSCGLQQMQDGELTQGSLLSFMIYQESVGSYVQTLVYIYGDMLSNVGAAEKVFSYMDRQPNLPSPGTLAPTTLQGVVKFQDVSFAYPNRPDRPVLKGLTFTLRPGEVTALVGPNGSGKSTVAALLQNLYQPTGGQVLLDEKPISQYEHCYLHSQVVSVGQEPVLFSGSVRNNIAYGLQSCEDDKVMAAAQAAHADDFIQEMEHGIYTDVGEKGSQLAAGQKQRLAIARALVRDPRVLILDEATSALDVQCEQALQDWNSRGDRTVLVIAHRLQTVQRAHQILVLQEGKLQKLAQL

[2] = biological target: T1, TAP complex of MJS TAP1-GFP cells …; assay: radioligand binding; microsomes of control MJS TAP1-GFP cells incubated on ice with increasing concentrations of RR[125I]YQKSTEL in AP buffer (5 mM MgCl2 in PBS, pH 7.0); corrected for the signal with 200-fold excess of ICP47; triplicate
[3] = biological target: T1, TAP complex of MJS TAP1-GFP cells …; assay: radioligand binding; as a2, but microsomes of MJS TAP1-GFP cells that express EHV-1 UL49.5

B1: radiolabeled reporter peptide RR[125I]YQKSTEL (peptide)
peptide: RRY(125I)QKSTEL
notes: also called ^125I-labeled reporter peptide; radiolabeled peptide
Kd [1]: 351 ± 42 nM
Kd [2]: 277 ± 58 nM
Kd [3]: 236 ± 71 nM
